In assay [1] the target is T1, TcAdoMetDC (T. cruzi AdoMetDC homodimer) (Trypanosoma cruzi, UniProt O76240).
T1 sequence (O76240 1-85): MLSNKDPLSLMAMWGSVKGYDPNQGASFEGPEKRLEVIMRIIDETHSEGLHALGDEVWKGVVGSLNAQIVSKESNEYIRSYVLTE
T1 sequence (O76240 86-370): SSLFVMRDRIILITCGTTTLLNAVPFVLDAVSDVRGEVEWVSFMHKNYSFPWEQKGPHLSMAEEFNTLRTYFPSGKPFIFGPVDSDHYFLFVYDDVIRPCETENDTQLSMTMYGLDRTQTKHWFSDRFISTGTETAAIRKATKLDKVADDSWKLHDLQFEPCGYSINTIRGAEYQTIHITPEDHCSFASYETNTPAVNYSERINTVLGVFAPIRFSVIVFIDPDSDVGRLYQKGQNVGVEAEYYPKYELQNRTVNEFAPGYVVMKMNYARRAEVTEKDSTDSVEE
Put plainly: activation of AdoMet decarboxylation, […]CO2 trapping. Format: biochemical. As to conditions: 5 mM putrescine; allosteric activator; pH 8.0, 37 °C.

Assay [2] deals with T. cruzi S-adenosylmethionine decarboxylase (AdoMetDC), His6-tagged (Trypanosoma cruzi).
Assay [3] has as its target T. brucei S-adenosylmethionine decarboxylase (AdoMetDC), His6-tagged (Trypanosoma brucei).
For assay [4], the target named is T. cruzi S-adenosylmethionine decarboxylase (AdoMetDC), His6-tagged (Trypanosoma cruzi). The source holds these as a separate data set.

As to `NCCCCN` [putrescine], the “activation of AdoMet decarboxylation, 14CO2 trapping” value in assay [1] was “the T. cruzi AdoMetDC enzyme was stimulated by putrescine”.

“T. brucei prozyme, His6-tagged (natural protein)”: the increase of T. cruzi AdoMetDC activity by T. brucei prozyme, no putrescine in assay [2] was 70 fold.

For “T. cruzi prozyme, His6-tagged (natural protein)”, the stimulation of T. brucei AdoMetDC activity by T. cruzi prozyme, no putrescine in assay [3] turned out to be 60 fold.

“T. cruzi prozyme, untagged (natural protein)”: in assay [4], the kcat/Km of AdoMet decarboxylation, co-purified heterodimer, 5 mM putrescine turned out to be 5100 M⁻¹ s⁻¹ and the kcat/Km of AdoMet decarboxylation, co-purified heterodimer, no putrescine is 1030 M⁻¹ s⁻¹.

(Values after paper PMC2730992 (Molecular and biochemical parasitology, 2009).)
